Here are results for one substance from patent publication US20060287320A1, “Preparation of thioarabinofuranosyl compounds and use thereof” (Southern Research Institute, priority 1998, published 2006).

For the data set, the system named is T1, Nc1ccn([C@@H]2S[C@H](CO)[C@@H](O)[C@@H]2O)c(=O)n1.
T1 construct: endogenous in cells; host or cells: Molt-4 cells (enzyme purified from the cells)
The data set can be described thus: purified protein, by the assay type. Format: biochemical. As to conditions: other: dCyd kinase activity from Molt-4 cells.

Chain of dCyd Kinase Activity Isolated from Molt-4 Cells (Homo sapiens) (chain, as listed by the source): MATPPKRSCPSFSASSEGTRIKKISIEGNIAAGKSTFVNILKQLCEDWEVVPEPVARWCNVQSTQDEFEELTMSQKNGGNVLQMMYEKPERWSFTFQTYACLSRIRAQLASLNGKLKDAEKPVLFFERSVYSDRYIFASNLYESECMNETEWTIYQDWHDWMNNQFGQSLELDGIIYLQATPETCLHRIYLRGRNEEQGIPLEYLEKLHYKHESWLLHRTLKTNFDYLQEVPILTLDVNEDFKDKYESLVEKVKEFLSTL
Description: Each assay was done in duplicate and the kinetic constants were determined from linear double-reciprocal plots of 1/velocity versus 1/concentration of the substrate. The best line was determined by linear regression from at least 5 datum points, and the Km and Vmax were determined from the x and y intercepts.

Consider “dCyd Kinase Activity Isolated from Molt-4 Cells (Homo sapiens)”, for which the Km (as a rule, the concentration of substrate that gives half-maximal velocity) stood at 93 µM.
